Source: paper PMC3382207, “Proteolytic Processing of ErbB4 in Breast Cancer” (PLoS ONE, 2012)

Key:
[1] = biological target: T1, His-tagged extracellular subdomain IV of ErbB4 (Homo sapiens, isoform JM-a, UniProt Q15303); assay: Western blot; conditioned media of COS-7 transfectants expressing the His-tagged subdomains, blotted under non-reducing conditions, mAb 1479 as the primary antibody; anti-pentaHis as control of expression; conditions: one partner purified
T1 construct: ErbB4 extracellular subdomain IV; construct limits are in File S1; source: COS-7, transiently transfected, in conditioned medium; not shown: His tag, C-terminal, kept
T1 sequence (Q15303 whole entry, looked up, tested part not stated, canonical isoform): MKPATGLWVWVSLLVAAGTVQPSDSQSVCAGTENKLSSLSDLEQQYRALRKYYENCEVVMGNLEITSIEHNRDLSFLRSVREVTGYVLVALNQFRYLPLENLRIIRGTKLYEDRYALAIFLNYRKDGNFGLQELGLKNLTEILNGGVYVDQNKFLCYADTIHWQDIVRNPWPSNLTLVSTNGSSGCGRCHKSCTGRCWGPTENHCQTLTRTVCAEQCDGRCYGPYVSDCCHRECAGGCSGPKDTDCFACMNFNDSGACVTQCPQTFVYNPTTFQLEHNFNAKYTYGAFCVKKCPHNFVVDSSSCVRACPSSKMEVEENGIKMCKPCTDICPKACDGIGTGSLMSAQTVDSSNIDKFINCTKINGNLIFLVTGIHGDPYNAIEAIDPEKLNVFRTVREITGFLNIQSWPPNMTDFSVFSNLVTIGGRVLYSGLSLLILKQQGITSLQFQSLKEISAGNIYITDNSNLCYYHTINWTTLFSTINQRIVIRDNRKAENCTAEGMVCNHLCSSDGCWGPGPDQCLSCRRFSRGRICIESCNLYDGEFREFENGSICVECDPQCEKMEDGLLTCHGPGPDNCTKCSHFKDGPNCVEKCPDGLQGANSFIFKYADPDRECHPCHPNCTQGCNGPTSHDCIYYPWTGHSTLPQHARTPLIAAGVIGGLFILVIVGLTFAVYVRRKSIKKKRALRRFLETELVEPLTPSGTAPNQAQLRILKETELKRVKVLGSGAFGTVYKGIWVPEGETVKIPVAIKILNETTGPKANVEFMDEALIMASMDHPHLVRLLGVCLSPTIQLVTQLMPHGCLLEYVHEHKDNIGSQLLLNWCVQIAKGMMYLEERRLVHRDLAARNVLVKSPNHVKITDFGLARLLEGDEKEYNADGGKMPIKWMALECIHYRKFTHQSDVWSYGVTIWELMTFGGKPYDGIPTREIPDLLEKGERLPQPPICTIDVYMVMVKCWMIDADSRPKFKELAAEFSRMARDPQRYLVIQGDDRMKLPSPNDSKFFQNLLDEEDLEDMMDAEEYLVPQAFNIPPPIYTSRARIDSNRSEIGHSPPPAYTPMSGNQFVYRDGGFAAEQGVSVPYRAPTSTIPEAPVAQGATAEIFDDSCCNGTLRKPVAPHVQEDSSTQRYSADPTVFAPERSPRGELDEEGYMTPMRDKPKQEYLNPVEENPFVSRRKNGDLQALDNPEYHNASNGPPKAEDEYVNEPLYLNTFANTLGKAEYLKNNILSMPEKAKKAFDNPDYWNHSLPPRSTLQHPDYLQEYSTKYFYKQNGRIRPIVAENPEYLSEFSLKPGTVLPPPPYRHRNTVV

soluble ErbB4 ectodomain [2] = biological target: T2, soluble ErbB4 ectodomain (UniProt Q15303)
T2 sequence: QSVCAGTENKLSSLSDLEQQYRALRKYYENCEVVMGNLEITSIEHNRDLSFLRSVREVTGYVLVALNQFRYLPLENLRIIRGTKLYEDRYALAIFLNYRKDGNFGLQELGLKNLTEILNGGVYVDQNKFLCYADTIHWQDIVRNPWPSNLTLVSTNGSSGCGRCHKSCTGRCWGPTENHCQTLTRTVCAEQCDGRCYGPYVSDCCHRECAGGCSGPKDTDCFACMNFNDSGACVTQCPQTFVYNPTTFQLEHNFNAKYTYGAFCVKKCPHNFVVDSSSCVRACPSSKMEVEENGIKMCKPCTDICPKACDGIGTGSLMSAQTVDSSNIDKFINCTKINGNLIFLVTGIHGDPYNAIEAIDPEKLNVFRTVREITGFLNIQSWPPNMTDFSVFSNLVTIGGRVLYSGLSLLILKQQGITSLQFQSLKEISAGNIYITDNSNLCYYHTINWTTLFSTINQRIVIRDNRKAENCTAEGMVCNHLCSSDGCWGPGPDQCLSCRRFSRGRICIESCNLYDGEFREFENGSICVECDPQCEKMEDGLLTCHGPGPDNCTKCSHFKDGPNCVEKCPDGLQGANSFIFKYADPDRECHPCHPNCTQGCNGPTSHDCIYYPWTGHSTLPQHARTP

soluble ErbB4 ectodomain [3] = biological target: T2, soluble ErbB4 ectodomain; remark: listed apart in the source

B1: anti-ErbB4 monoclonal antibody mAb 1479 (antibody, V domains shown)
VH: QVTLKESGPGILQPSQTLSLTCSFSGFSLSTYGIGVGWIRQPSGKGLEWLAHIWWNDNKYYNIALRSRLTISKDTSNNQVFLKIASVDTADTATYYCARIPDDHYFDYWGQGTTLTVSS
VL: DVLMTQTPLSLPVSLGDQASISCRSSQSIVHSNGNTYLEWYLQKPGQSPKLLIYKVSNRFSGVPDRFSGSGSGTDFTLKISRVEAEDLGVYYCFQGSHVPWTFGGGTKLEIK
notes: constant part of the IgG2 isotype; mouse monoclonal antibody, IgG2 isotype
[1]
  binding result: binds
Soluble ErbB4 ectodomain [2]
  relative proportion of the 100 kD ectodomain fragment of total ErbB4 in T-47D xenografts (Western blot with mAb 1464), control IgG against mAb 1479: 9%
Soluble ErbB4 ectodomain [3]
  relative proportion of the 80 kD carboxy-terminal fragment of the total ErbB4 in T-47D xenografts (Western blot with E-200), control IgG against mAb 1479: 74%
